# Measurements reported in article PMC11122373, “Structure-Based De Novo Design for the Discovery of Miniprotein Inhibitors Targeting Oncogenic Mutant BRAF” (International Journal of Molecular Sciences, 2024).
# Where a chain is given by its changes, count along the chain named.
# B1: miniprotein 94 (designed binder)
# chain: PCVWTGFREFKGGQRGKERLAMCEDLMCEADWWGGNQNRDRGSIFTRVKGSGALGKISIAERGARNNAV
# notes: de novo designed miniprotein of three helices and 69 amino acids; scaffold from residues 164-232 of 14-3-3, all 69 residues allowed to mutate; Cloned into pMAL-c5x with C-terminal Myc tag; source: E. coli BL21(DE3), purified (MBPTrap HP column); not shown: MBP, N-terminal, kept; Myc, C-terminal, kept
# B2: miniprotein 63 (designed binder)
# chain: SIVGQGAQQMLVSKIKCTVANEWLDRSMLTSKFAMFVLLNEIDMLDIMLEAMGISLLEDREHQTRRVNY
# notes: de novo designed miniprotein of three helices and 69 amino acids; scaffold from residues 164-232 of 14-3-3, all 69 residues allowed to mutate; Cloned into pMAL-c5x (NdeI, EcoRI) with C-terminal Myc tag; source: E. coli BL21(DE3), purified (MBPTrap HP column); not shown: MBP, N-terminal, kept; Myc, C-terminal, kept
# B3: miniprotein 76 (designed binder)
# chain: B2 chain with V3Q, Q8R, M10C, I15L, S27W, L56I, L57E
# notes: as for B2
# Biological target: T1, V600E mutant BRAF^15mut (BRAF kinase domain with 15 solubilizing mutations and V600E) (UniProt P15056 444-723, I543A | I544S | I551K | Q562R | L588N | K630S | Y673S | A688R | L706S | Q709R | …)
# T1 construct: BRAF kinase domain, residues 444-723 of UniProt P15056, with 15 solubilizing mutations (Phe667 kept intact) and V600E; Cloned into pET-32a (NdeI, XhoI) with N-terminal MBP; also called VRAF murine sarcoma viral oncogene homologue B1 kinase domain; source: E. coli BL21(DE3), purified (MBPTrap HP column)
# T1 sequence (P15056 other isoform, or with tags, fused parts or gaps with the stated changes): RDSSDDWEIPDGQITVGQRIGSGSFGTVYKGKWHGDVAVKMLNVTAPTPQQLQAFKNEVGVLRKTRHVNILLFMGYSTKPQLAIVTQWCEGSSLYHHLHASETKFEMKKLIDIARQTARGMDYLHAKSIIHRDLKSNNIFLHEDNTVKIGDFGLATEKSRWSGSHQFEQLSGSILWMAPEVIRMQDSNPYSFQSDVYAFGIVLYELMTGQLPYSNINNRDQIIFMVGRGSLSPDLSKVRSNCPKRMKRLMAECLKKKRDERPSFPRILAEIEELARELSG
# Assay: ELISA; 10 ug/mL V600E mutant BRAF^15mut coated in a 96-well plate; blocked with 5% skim milk in 20 mM Tris-HCl pH 7.5, 150 mM NaCl; purified Myc-tagged proteins (MEK1, MBP, miniproteins) added at 0, 200 and 2000 nM; detected with anti-c-Myc antibody and HRP-conjugated anti-mouse IgG, TMB, absorbance at 450 nm; triplicate
# Conditions: both partners purified
row,Binder,binding result
1,B1,binds
2,B2,binds
3,B3,binds
